The target in this assay is T1, soluble recombinant human IL-1RI (corresponding to the extracellular domain of IL-1RI) (human, UniProt P14778 18-336).
T1 construct: extracellular domain; also called interleukin-1 receptor I; IL-1R1 receptor
T1 sequence (looked up): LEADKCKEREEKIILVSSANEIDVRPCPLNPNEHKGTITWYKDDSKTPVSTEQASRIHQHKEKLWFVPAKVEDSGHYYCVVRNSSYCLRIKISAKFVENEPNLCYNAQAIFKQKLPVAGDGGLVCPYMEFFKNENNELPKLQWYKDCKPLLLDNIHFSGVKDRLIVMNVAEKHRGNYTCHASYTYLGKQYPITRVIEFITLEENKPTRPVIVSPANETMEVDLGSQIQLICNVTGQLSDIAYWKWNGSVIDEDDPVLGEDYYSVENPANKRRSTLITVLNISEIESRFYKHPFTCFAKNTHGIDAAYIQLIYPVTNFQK
The assay is described as follows: Kd to the IL-1R1 receptor as listed in Table 15; method not restated, values are the SPR values of Table 7 rounded.

B1: P02 (designed binder)
chain: APVRSLAFRIWDVNQKTFYLRNNQLVAGYLQGPNVNLEEKIDVSFVQGEESNDKIPVALGIHGGKMCLSCVKSGDETRLQLEAVDPKNYPKKKMEKRFVFNKIEINNKLSFESAACPGWFLCTAMEADQPVSLTNMPDEGVMVTKFYMQFVSS
notes: IL-1β/IL-1Ra chimera expressed in E. coli; also called P02 domain; chimeric cytokine domain P02
As for B1, the Kd (commonly the constant that tells how readily two partners part at equilibrium) amounted to 0.64 nM.
